Reference: the supplement of paper PMC9170038

Test system: MS2 coat protein
Assay: apparent KD of MS2 coat protein; designed switch direction (-1 OFF switch, 1 ON switch): -1; higher = weaker reporter binding
Method in brief: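 Transcription of designed RNA switches on Illumina chips was done by stalled E. coli RNA polymerase. SNAP-549-labelled MS2 coat protein was then titrated in doubling steps from 0.7 or 1.5 nM to 3 µM, with steps of 0.8–1.5 h at the lowest and 10–20 min at the highest concentration. The per-design median over clusters of curve-fitted normalised fluorescence is reported as apparent KD.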

[1] = input ligand: microRNA oligo, concentration not stated

Sequence | apparent KD of MS2 coat protein (input ligand: FMN 200 uM) | apparent KD of MS2 coat protein (input ligand: none) | apparent KD of MS2 coat protein (Eterna round: R95, input ligand: FMN 200 uM) | apparent KD of MS2 coat protein (Eterna round: R95, input ligand: microRNA oligo, concentration not stated) | apparent KD of MS2 coat protein (Eterna round: R95, input ligand: none) | apparent KD of MS2 coat protein [1]
UAAUAGUAUGUUAGGAUAUGCUGGUCGAAAGAUCAGCAGAAGGAACAUGAGGAUCACCCAUGUAGACUAUUUUA [Mod of JL 20 - Jieux - Brourd's mod of Exclusion 4] (Eterna round: R97, puzzle: Brourd's mod of Exclusion 4) | 31.6 nM | 17.8 nM |  |  |  | 
UAAUGCAAGUAAAGAUCUUACAUGAGGAUCACCCAUGUGCUCGUCUUAUAAAGUACUAUCACGAAAGUGAUAGUACA [Mat - Sensor v3 - turn-off var 1 - Eli Mod - D89] (puzzle: Sensor v3, turn-off variant 1) |  |  | 18.2 nM | 119 nM | 18 nM | 
UAAUGUAUAUAGGAUAUCUAGCUGGAAACAGCUAGAGAAGGAUGUACAUGAGGAUCACCCAUGUAAAUCGUGAA [Ex6/13-B1] (Eterna round: R97, puzzle: Exclusion 6) | 60.4 nM | 24.9 nM |  |  |  | 
UACAAGCUUUUAAGAUCCCACAUGAGGAUCACCCAUGUGCUCGUCUUAUAACGUACUGUGACGAAAGUCACGGUACG [JL TOV1 3.24] (Eterna round: R97, puzzle: Sensor, turn-off variant 1) | 15.8 nM | 24.3 nM |  |  |  | 
UACACCACAUGAGGAUCAAACAUGAGGAUCACCCAUGUAUAGCAAGCUUUUUGCUCGUCUUAUAAAUAUGUGGUGUA [Electric Eye 6 - Jieux - Sensor, turn-off variant 1] (Eterna round: R97, puzzle: Sensor, turn-off variant 1) | 14.9 nM | 14.9 nM |  |  |  | 
UACACCGCAUGAGGAUCAAACAUGAGGAUCACCCAUGUAUAGCAAGCUUUUUGCUCGUCUUAUAAAUAUGUGGUGUA [Electric Eye 8 - Jieux - Sensor, turn-off variant 1] (Eterna round: R97, puzzle: Sensor, turn-off variant 1) | 16.6 nM | 15.5 nM |  |  |  | 
UACACUCAGCAGGAUAUGCAACAAAAUUAAAACGCAGAAGGGUUGACAUGAGGAUCACCCAUGUAACUCAUGCA [EX6 A.1] (Eterna round: R97, puzzle: Exclusion 6) | 14.2 nM | 15.7 nM |  |  |  | 
UACACUGCAUGAGGAUCAAACAUGAGGAUCACCCAUGUAUAGCAGGCUUUUUGUCCGUCUUAUAAUUAUGUAGUGUA [Electric Eye 17 - Jieux - Sensor, turn-off variant 1] (Eterna round: R97, puzzle: Sensor, turn-off variant 1) | 17.3 nM | 15 nM |  |  |  | 
UACAUGAGGAUCACCCAUGUACCUUAUGUAAGAGUGGGAAGUAAGGAUAUAUAUGAAGGAAUGAAAUAGAAGGUGCAUAGAGAG [Default title] (Eterna round: R96, puzzle: Exclusion NG 3) | 121 nM | 93.3 nM |  |  |  | 97.4 nM
UACAUGAGGAUCACCCAUGUUUUGUCGUGUAUGGUAUUUAUCUAGGAUAUCAAGUUAUGUAUUUAUGAGAAGGAGAAUAUUAAU [JMF's solution 31] (Eterna round: R96, puzzle: Exclusion NG 3) | 40.4 nM | 43.2 nM |  |  |  | 35.3 nM
UACAUGAGGAUCACCCAUGUUUUGUCGUGUAUGGUAUUUAUCUAGGAUAUCAAGUUAUUUAUGUAUGAGAAGGAGAAUAUUAAU [JMF's solution 36] (Eterna round: R96, puzzle: Exclusion NG 3) | 42.5 nM | 35.2 nM |  |  |  | 26.4 nM
UACAUGAGGAUCACCCAUGUUUUGUCGUGUAUGGUAUUUAUCUAGGAUAUCAAGUUAUUUGUUUAUGAGAAGGAGAAUAUUAAU [JMF's solution 33] (Eterna round: R96, puzzle: Exclusion NG 3) | 37.1 nM | 37.1 nM |  |  |  | 26.1 nM
UACAUGAGGAUCACCCAUGUUUUGUCGUGUAUGGUAUUUAUCUAGGAUAUCAAUGUAUUUAUUCAUGAGAAGGAGAAUAUUAAU [JMF's solution 48] (Eterna round: R96, puzzle: Exclusion NG 3) | 32.4 nM | 33.7 nM |  |  |  | 28.3 nM
UACAUGAGGAUCACCCAUGUUUUGUCGUGUAUGGUAUUUAUCUAGGAUAUCAAUUGAAUUAUUUAUGAGAAGGAGAAUAUUAAU [JMF's solution 58] (Eterna round: R96, puzzle: Exclusion NG 3) | 42 nM | 49 nM |  |  |  | 36.4 nM
UACAUGAGGAUCACCCAUGUUUUGUCGUGUAUGGUAUUUAUCUAGGAUAUCAAUUUACUUAUUUAUGAGAAGGAGAAUAUUAAU [JMF's solution 19] (Eterna round: R96, puzzle: Exclusion NG 3) |  |  |  |  |  | 26.8 nM
UACAUGAGGAUCACCCAUGUUUUGUCGUGUAUGGUAUUUAUCUAGGAUAUCAAUUUAGUUAAUUAUGAGAAGGAGAAUAUUAAU [JMF's solution 75] (Eterna round: R96, puzzle: Exclusion NG 3) |  |  |  |  |  | 28.9 nM
